Biological target: T1, FLAG-tagged HPV8E6 (E6 oncoprotein of human papillomavirus type 8), wild type (human papillomavirus type 8, UniProt P06428 1-155)
T1 sequence: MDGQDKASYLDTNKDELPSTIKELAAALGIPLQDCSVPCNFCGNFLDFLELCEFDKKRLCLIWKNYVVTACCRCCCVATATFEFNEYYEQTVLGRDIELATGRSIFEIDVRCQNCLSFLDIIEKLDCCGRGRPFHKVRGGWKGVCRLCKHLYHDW
Assay: cell-based or functional assay

B1: Myc-tagged protein tyrosine phosphatase H1 (PTPH1), full length (enzyme, UniProt P26045 1-913, looked up)
chain: MTSRLRALGGRINNIRTSELPKEKTRSEVICSIHFLDGVVQTFKVTKQDTGQVLLDMVHNHLGVTEKEYFGLQHDDDSVDSPRWLEASKAIRKQLKGGFPCTLHFRVRFFIPDPNTLQQEQTRHLYFLQLKMDICEGRLTCPLNSAVVLASYAVQSHFGDYNSSIHHPGYLSDSHFIPDQNEDFLTKVESLHEQHSGLKQSEAESCYINIARTLDFYGVELHSGRDLHNLDLMIGIASAGVAVYRKYICTSFYPWVNILKISFKRKKFFIHQRQKQAESREHIVAFNMLNYRSCKNLWKSCVEHHTFFQAKKLLPQEKNVLSQYWTMGSRNTKKSVNNQYCKKVIGGMVWNPAMRRSLSVEHLETKSLPSRSPPITPNWRSPRLRHEIRKPRHSSADNLANEMTYITETEDVFYTYKGSLAPQDSDSEVSQNRSPHQESLSENNPAQSYLTQKSSSSVSPSSNAPGSCSPDGVDQQLLDDFHRVTKGGSTEDASQYYCDKNDNGDSYLVLIRITPDEDGKFGFNLKGGVDQKMPLVVSRINPESPADTCIPKLNEGDQIVLINGRDISEHTHDQVVMFIKASRESHSRELALVIRRRAVRSFADFKSEDELNQLFPEAIFPMCPEGGDTLEGSMAQLKKGLESGTVLIQFEQLYRKKPGLAITFAKLPQNLDKNRYKDVLPYDTTRVLLQGNEDYINASYVNMEIPAANLVNKYIATQGPLPHTCAQFWQVVWDQKLSLIVMLTTLTERGRTKCHQYWPDPPDVMNHGGFHIQCQSEDCTIAYVSREMLVTNTQTGEEHTVTHLQYVAWPDHGVPDDSSDFLEFVNYVRSLRVDSEPVLVHCSAGIGRTGVLVTMETAMCLTERNLPIYPLDIVRKMRDQRAMMVQTSSQYKFVCEAILRVYEEGLVQMLDPS
Myc-PTPH1 phosphatase activity (Malachite Green PTP assay on precipitated Myc-PTPH1, two phospho-tyrosine peptides) upon co-expression of HPV8E6 compared to the empty FLAG control vector: 2.5 fold

Reference: article PMC6468676, “The Protein Tyrosine Phosphatase H1 PTPH1 Supports Proliferation of Keratinocytes and is a Target of the Human Papillomavirus Type 8 E6 Oncogene” (Cells, 2019)
